# Measurements from US20170305994A1 (Novo Nordisk, published 2017).
# T1: human DR3 (full length, on cells) (human, UniProt Q93038 25-417)
# T1 sequence: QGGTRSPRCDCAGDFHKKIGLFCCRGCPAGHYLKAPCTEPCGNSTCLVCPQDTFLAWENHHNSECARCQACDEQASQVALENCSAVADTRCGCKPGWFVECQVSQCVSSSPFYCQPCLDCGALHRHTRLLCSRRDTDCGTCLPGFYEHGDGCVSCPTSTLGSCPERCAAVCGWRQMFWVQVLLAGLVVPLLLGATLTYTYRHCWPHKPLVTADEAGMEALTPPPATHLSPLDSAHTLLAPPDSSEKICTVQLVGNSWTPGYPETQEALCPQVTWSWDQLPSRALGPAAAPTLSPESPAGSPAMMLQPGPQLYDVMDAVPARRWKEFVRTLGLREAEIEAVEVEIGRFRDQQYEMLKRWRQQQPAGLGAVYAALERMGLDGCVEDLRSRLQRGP
# T2: human DR3 with the death domain deleted (ΔM339-P417 of SEQ ID NO:1), expressed on CHOK1SV cells (human, UniProt Q93038 25-338)
# T2 construct: also called truncated DR3; hDR3 expressing CHO cells
# T2 sequence: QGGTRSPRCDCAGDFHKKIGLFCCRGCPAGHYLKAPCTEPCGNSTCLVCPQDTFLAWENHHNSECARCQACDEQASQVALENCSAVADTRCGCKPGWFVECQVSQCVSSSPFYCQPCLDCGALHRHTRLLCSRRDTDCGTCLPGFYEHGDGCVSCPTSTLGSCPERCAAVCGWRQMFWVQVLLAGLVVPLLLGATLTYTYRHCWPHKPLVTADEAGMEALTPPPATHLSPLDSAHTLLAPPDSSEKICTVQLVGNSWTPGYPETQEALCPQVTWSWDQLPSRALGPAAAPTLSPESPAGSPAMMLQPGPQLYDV
# Tests used:
# [1] = target: T1, human DR3 (full length, on cells); assay: cell-based or functional assay
# DR3 (CRD1)-Fc = target: T3, DR3 (CRD1)-Fc (human); assay: SPR Biacore T200, DR3(CRD1)-Fc captured by anti-human IgG, Fab as analyte, 25 C, 1:1 model, mean of 3 surface densities
# T3 construct: Amino acids 25-71 of DR3 fused to the Fc domain of human IgG4; purified to exclude oligomers (mainly dimeric)
# T3 sequence (chain, as listed by the source limits assumed): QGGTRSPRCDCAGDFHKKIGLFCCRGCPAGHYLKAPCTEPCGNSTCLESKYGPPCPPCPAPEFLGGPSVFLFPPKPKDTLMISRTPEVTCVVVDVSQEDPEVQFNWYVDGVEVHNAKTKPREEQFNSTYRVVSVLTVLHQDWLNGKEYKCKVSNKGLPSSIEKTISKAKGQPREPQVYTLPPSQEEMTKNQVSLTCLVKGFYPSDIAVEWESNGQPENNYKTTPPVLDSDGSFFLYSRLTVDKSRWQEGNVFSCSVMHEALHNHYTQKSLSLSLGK
# Procedure: The experiments were performed on a Biacore T200 instrument (GE Healthcare) and analysed with the Biacore T200 Evaluation Software. Anti human IgG antibodies (human IgG capture kit from GE Healthcare) were immobilized on all flow cells of a CM5 sensor chip according to manufacturer's instructions. HBS-EP (GE Healthcare) with 0.1% human serum albumin was used as running buffer. DR3(CRD1)-Fc (SEQ ID NO:2) was captured on the chip at low surface densities between 14 and 45 RU. Fab fragments were diluted to concentrations between 90 and 0.037 nM and subsequently injected for 360 s. […] Binding curves were measured at 25° C. with a flow rate between 30 and 60 μL/min.
# Regeneration was performed with 3 M […] for 2×20 s. The raw data were double referenced by subtraction of the signals from a reference flow cell without captured ligand and a buffer blank. Determination of the kinetic parameters was performed by fitting with a 1:1 binding model using the Biacore T200 Evaluation Software (GE Healthcare). Average values obtained from 3 different surface densities of DR3(CRD1)-Fc (SEQ ID NO:2) were calculated and are stated in table 14
# [2] = target: T2, human DR3 with the death domain deleted …; assay: flow cytometry competition: Fab vs TL1A on hDR3-expressing CHO cells
# [3] = target: T1, human DR3 (full length, on cells); assay: cell-based or functional assay; remark: listed apart in the source
# [4] = target: T1, human DR3 (full length, on cells); assay: cell-based or functional assay; remark: listed apart in the source
# [5] = target: T1, human DR3 (full length, on cells); assay: cell-based or functional assay; remark: listed apart in the source
# [6] = target: T1, human DR3 (full length, on cells); assay: cell-based or functional assay; remark: listed apart in the source
Binder,Kd (DR3 (CRD1)-Fc) [nM],koff (DR3 (CRD1)-Fc) [s⁻¹],kon (DR3 (CRD1)-Fc) [M⁻¹ s⁻¹],IC50 [2] [nM],max percentage inhibition [2] [%],"max % inhibition of TNFalpha, donor 1 [3] [%]","max % inhibition of TNFalpha, donor 2 [3] [%]","IC50 at 40 ng/ml TL1A, I5 reporter cells [5] [nM]","IC50, TNFalpha inhibition, TL1A-activated CD4+ T cells, donor 1 [3] [nM]","IC50, TNFalpha inhibition, TL1A-activated CD4+ T cells, donor 2 [3] [nM]",also measured
"0169 (humanized IgG1 Fab of 0072; HC T28A S49A Y91; LC Q3A T5A S60A M4L) (Fab, V domains shown) VH: EVQLVESGGGLVQPGGSLRLSCAASGFTFSNYDMSWVRQAAGKGLEWVSAFSSDGYTFYPGAVKGRFTISRENAKNSLYLQMNSLRAGDTAVYYCARHADYANYPVMDYWGQGTLVTVSS VL: DIALAQSPSSLSASVGDRVTITCRASKSVSTSGYSYMHWYQQKPGKAPKLLIYLASNLEAGVPSRFSGSGSGTDFTLTISSLQPEDFATYYCQHSRELPLTFGGGTKVEIK",–,–,–,–,–,–,–,–,–,–,"IFN-γ, TL1A-costimulated lymphocytes, Fab 0.003 µg/mL [1]: 121 ng/mL; IFN-γ, TL1A-costimulated lymphocytes, Fab 0.01 µg/mL [1]: 138 ng/mL; IFN-γ, TL1A-costimulated lymphocytes, Fab 0.03 µg/mL [1]: 81 ng/mL; IFN-γ, TL1A-costimulated lymphocytes, Fab 0.1 µg/mL [1]: 58 ng/mL; IFN-γ, TL1A-costimulated lymphocytes, Fab 0.3 µg/mL [1]: 31 ng/mL; IFN-γ, TL1A-costimulated lymphocytes, Fab 1.0 µg/mL [1]: 55 ng/mL"
"0219 (humanized Fab of 27F44, IgG1, S49A HC) (Fab, V domains shown, Human IgG1 constant part) VH: EVQLVESGGGLVQPGGSLRLSCAASGFTFSNYDMSWVRQATGKGLEWVAAFSSDGYTFYPGSVKGRFTISRENAKNSLYLQMNSLRAGDTAVYYCARHADYANYPVMDYWGQGTLVTVSS VL: DIQMTQSPSSLSASVGDRVTITCRASKSVSTSGYSYMHWYQQKPGKAPKLLIYLASNLESGVPSRFSGSGSGTDFTLTISSLQPEDFATYYCQHSRELPLTFGGGTKVEIK",0.00955,3.06e-05,3.2e+06,–,–,–,–,–,–,–,–
"0122 (chimeric Fab of 27F16, human IgG4 constant domain, hinge Cys->Ser) (Fab, V domains shown, murine variable domains, human IgG4 constant domain (IgG4-Ser), human kappa) VH: EVQLVESGGDFVKPGGSLKLSCAASGFTFNNYGMSWVRQTPDKRLEWVAAISSGVTYTYYPDTVKGRFTISRDNAKNTLYLHMSSLKSEDTAMYYCGRHDDYGNHFDYWGQGTTLTVSS VL: DIVMTQSPSSLAMSLGQRVTMNCKSSQSLLNSHNQKNYLAWYQQKPGQSPKLLVYFASSRESGVPDRFIGSGSGTDFTLTISSVQAEDLADYFCQQHYSTPFTFGSGTKLEIKR",–,–,–,5.11,33,3.9,10,–,–,–,–
"0118 (chimeric Fab of 27F16, human IgG1 constant domain) (Fab, V domains shown) VH: EVQLVESGGDFVKPGGSLKLSCAASGFTFNNYGMSWVRQTPDKRLEWVAAISSGVTYTYYPDTVKGRFTISRDNAKNTLYLHMSSLKSEDTAMYYCGRHDDYGNHFDYWGQGTTLTVSS VL: DIVMTQSPSSLAMSLGQRVTMNCKSSQSLLNSHNQKNYLAWYQQKPGQSPKLLVYFASSRESGVPDRFIGSGSGTDFTLTISSVQAEDLADYFCQQHYSTPFTFGSGTKLEIKR",–,–,–,–,–,–,–,–,–,–,"IFN-γ, TL1A-costimulated lymphocytes, Fab 0.003 µg/mL [1]: 132 ng/mL; IFN-γ, TL1A-costimulated lymphocytes, Fab 0.01 µg/mL [1]: 134 ng/mL; IFN-γ, TL1A-costimulated lymphocytes, Fab 0.03 µg/mL [1]: 158 ng/mL; IFN-γ, TL1A-costimulated lymphocytes, Fab 0.1 µg/mL [1]: 151 ng/mL; IFN-γ, TL1A-costimulated lymphocytes, Fab 0.3 µg/mL [1]: 124 ng/mL; IFN-γ, TL1A-costimulated lymphocytes, Fab 1.0 µg/mL [1]: 132 ng/mL; IFN-γ, TL1A-costimulated RA SF cells, Fab 0.003 µg/mL [4]: 2310 pg/mL; IFN-γ, TL1A-costimulated RA SF cells, Fab 0.01 µg/mL [4]: 2280 pg/mL; IFN-γ, TL1A-costimulated RA SF cells, Fab 0.03 µg/mL [4]: 2080 pg/mL; IFN-γ, TL1A-costimulated RA SF cells, Fab 0.1 µg/mL [4]: 2100 pg/mL; IFN-γ, TL1A-costimulated RA SF cells, Fab 0.3 µg/mL [4]: 2120 pg/mL; IFN-γ, TL1A-costimulated RA SF cells, Fab 1 µg/mL [4]: 2230 pg/mL"
"0143 (chimeric Fab of 44F434, human IgG4 constant domain, hinge Cys->Ser) (Fab, V domains shown, IgG4-Ser, chimeric) VH: EVQLVESGGDLVMPGGSLKLSCAASGFIFSSYGLSWIRQTPDKRLEWVATISGGDSYTYYPDSVKGRFTISSDNAKNTLYLQMTSLKSEDTAMYYCATQREIYYGTYYALDHWGQGTSVTVSS VL: DIQMTQTTSSLSASLGDRVTISCRASQDINNYLNWYQQKPDGTVKLLIYYTSRLQSGVPSRFSGSGSGTDYSLTISSLEQDDIATYFCQQGSPLPWTFGGGTKLEIKR",0.00147,5.1e-06,3.49e+06,0.12,76,76.7,66,0.29,0.148,0.074,"IC50, TNFalpha inhibition, average (n 5) [3]: 0.125 nM"
"0130 (recombinant murine Fab of 45F36) (Fab, V domains shown, murine Fab; also called 00130) VH: EVQLVESGGGLVKPGGSLKLSCAASGFTFSSYAMSWVRQSPDKRLEWVAEISSGDTYTYYPDTVTGRFTISRDNAKKTLYLEMSGLRSEDTAMYYCARDREAYYGQQYVMDYWGQGTSVTVSS VL: DIVLTQSPASLAVSLGLSVTISCRASESIEYSGTSFLQWYQQKPGQPPRLLIYGSSTVESGVPARFSGSGSGTDFSLNIHPVEEDDSAMYFCQQSRRLPWTFGGGTKLEIKR",0.12,0.000208,1.74e+06,1.34,73,84.4,78,1.4,0.539,1.77,"IC50, TNFalpha inhibition, average (n 5) [3]: 0.642 nM"
"0124 (chimeric Fab of 28F26, human IgG4 constant domain, hinge Cys->Ser) (Fab, V domains shown, murine variable domains, human IgG4 constant domain (IgG4-Ser)) VH: EVKVVESGGGLVKPGGSLKLSCAASGFVFSSYDMSWVRQIPEKRLEWVAAISSGDYYTYYPDSVKGRFTISRDDARNTLYLQMSSLRSEDTALYYCARHRGGNYPQYAMDYWGQGTSVTVSS VL: DILLTQSPASFAVSLGQRATISCRASKSVSTSGYNYIHWYQQKPGQPPKLLIYLTSNLESGVPARFSGSGSGTDFTLNIHPVEEEDAATYYCQHSRELPFTFGSGTKLEIKR",0.267,0.000201,752000,1.3,79,52.3,41.3,2.4,1.11,1.21,"GM-CSF, fold downregulation, +TL1A + anti DR3 Fab [6]: 7.9 fold; IFNγ, fold downregulation, +TL1A + anti DR3 Fab [6]: 1.1 fold; IL-6, fold downregulation, +TL1A + anti DR3 Fab [6]: 13.3 fold; TNFα, fold downregulation, +TL1A + anti DR3 Fab [6]: 5 fold; IC50, TNFalpha inhibition, average (n 4) [3]: 1.33 nM"
